Measured values as given in paper PMC4314665, “Diversity of two-component systems: insights into the signal transduction mechanism by the Staphylococcus aureus two-component system GraSR” (F1000Research, 2014).

Key:
[1] = system: GraR (Staphylococcus aureus Mu50); test: DNase I footprinting; settings: 10 ng 32P-labelled promoter DNA, buffer, salt, pH and temperature not given (as described previously, ref 17)
[2] = system: GraR C (C-terminal DNA-binding domain) (Staphylococcus aureus Mu50); test: DNase I footprinting; settings: 10 ng 32P-labelled promoter DNA, buffer, salt, pH and temperature not given (as described previously, ref 17)
[3] = molecular target: T1, GraR (Staphylococcus aureus Mu50) (UniProt Q932F1); test: DNase I footprinting; settings: 10 ng 32P-labelled promoter DNA, buffer, salt, pH and temperature not given (as described previously, ref 17)
T1 sequence: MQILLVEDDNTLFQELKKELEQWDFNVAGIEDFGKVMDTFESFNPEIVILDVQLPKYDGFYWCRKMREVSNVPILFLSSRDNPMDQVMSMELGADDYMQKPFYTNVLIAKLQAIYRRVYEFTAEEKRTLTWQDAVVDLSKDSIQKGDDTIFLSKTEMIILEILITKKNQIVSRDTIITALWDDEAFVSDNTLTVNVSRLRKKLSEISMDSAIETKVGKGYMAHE

[4] = molecular target: T2, GST-BceS, cytoplasmic region of histidine kinase BceS (62-334) fused to GST (B. subtilis strain 168, UniProt O35044 62-334); test: pull-down; GST-fused bait immobilised on glutathione-sepharose resin in 1 x PBS; prey added at bait:prey ratios of about 1:1 to 1:2, 30 min at room temperature; five to seven washes; elution with 10 mM reduced glutathione in 50 mM Tris pH 8.0; SDS-PAGE; settings: both partners purified
T2 construct: Histidine kinase BceS (334 amino acids), B. subtilis strain 168, cytoplasmic region, residues 62-334; Cloned in pGEX-4T-1; source: E. coli BL21(DE3), purified (glutathione-sepharose); not shown: GST, N-terminal, kept
T2 sequence: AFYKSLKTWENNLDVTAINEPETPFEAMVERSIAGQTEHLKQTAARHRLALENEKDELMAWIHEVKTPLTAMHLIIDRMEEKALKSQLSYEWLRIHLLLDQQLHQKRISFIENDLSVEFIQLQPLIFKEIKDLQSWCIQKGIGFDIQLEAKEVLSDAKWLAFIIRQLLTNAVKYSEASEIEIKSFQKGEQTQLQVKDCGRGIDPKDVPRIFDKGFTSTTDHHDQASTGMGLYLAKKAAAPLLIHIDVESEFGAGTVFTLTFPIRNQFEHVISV

[5] = molecular target: the molecule itself; test: SDS-PAGE in the presence and absence of DTT; purified GraX on SDS-PAGE with and without dithiothreitol; data not shown

Q: For PvraFG promoter, which Kd [1] is on record?
A: 800 nM

Q: What about the Kd [2] of the same molecule?
A: 2400 nM

Q: How did the binding [3] turn out when “GGATCCTTTAGGTTTCATCTAAAATACTCCTTTAAACTGTAACCAAAAAACATATTACTCCACCTTTTAGTTACATATATATTATAATAGTAGCAAATGTTTTAAAATTTCAAAATACTGGAGGCTTTTTATGGCCCATATTATACGTAGAGTTAGTATCAAAGATGTAGAAAATTTCATTTCAATGAATTCCG (double strand) [graSR promoter]” was run?
A: no binding

B1: BceR, response regulator of Bacillus subtilis (natural protein)
chain: MFKLLLIEDDESLFHEIKDRLTGWSYDVYGIQDFSQVLQEFAAVNPDCVIIDVQLPKFDGFHWCRLIRSRSNVPILFLSSRDHPADMVMSMQLGADDFIQKPFHFDVLIAKIQAMFRRVHHYNTEPSTIKTWCGAAVDAEQNLVSNDKGSVELTKNEMFILKQLIEQKNKIVSREELIRSLWNDERFVSDNTLTVNVNRLRKKLDALQLGAYIETKVGQGYIAKEEDKFYD
notes: Response regulator BceR, B. subtilis strain 168; the bceR gene amplified with primers from the start to the stop codon; no extra amino acids on either terminus; Cloned in pET26b(+), untagged; source: E. coli BL21(DE3), purified (DEAE-Sepharose, heparin-sepharose), up to 90% purity
Q: Does B1 bind [4]?
A: binds

B2: GraX, auxiliary protein (tagless) (natural protein)
chain: MKPKVLLAGGTGYIGKYLSEVIENDAELFAISKYPDNKKTDDVEMTWIQCDIFHYEQVVAAMNQIDIAVFFIDPTKNSAKITQSSARDLTLIAADNFGRAAAINQVKKVIYIPGSRYDNETIERLGAYGTPVETTNLVFKRSLVNVELQVSKYDDVRSTMKVVLPKGWTLKNVVNHFIAWMGYTKGTFVKTEKSHDQFKIYIKNKVRPLAVFKIEETADGIITLILLSGSLVKKYTVNQGKLEFRLIKESAVVYIHLYDYIPRLFWPIYYFIQAPMQKMMIHGFEVDCRIKDFQSRLKSGENMKYTK
notes: Auxiliary protein GraX, S. aureus strain Mu50, full length graX gene; Cloned in pET26b between NdeI and HindIII; Dimers seen by SDS-PAGE without DTT; also called untagged GraX; source: E. coli BL21(DE3), purified (SP-Sepharose cation exchange), to 90%
Q: With B2 as the molecule, how does the “stoichiometry N” value [5] read?
A: 2
